Assay results as given in patent US20160369011A1 (EISAI R AND D MANAGEMENT, published 2016).

Key:
[1] = target: T1, human CA9 (carbonic anhydrase IX) (human, UniProt Q16790 38-414); assay: BIAcore T100, mAb captured on anti-human IgG, antigen as analyte, 1:1 model; mAb purified by protein A (ProA)
Protocol: (§1) Antibody concentrations were adjusted to generate 30-40 RU signal when bound to the antigen. […] The sensor surface was washed by injecting HBS-P buffer for 1 min at a flow rate of 50 μL/min. To record the antigen association to the captured mAb, a series of increasing concentrations of antigen was injected for 60 sec at a flow rate of 50 μL/min. The dissociation of antigen was monitored for 30 min at the same flow rate. The sensor surface was regenerated by injecting 3 M MgCl₂ for 1 min and then 30 sec at a flow rate of 30 μL/min. Sensograms were analyzed with Biacore T100 Evaluation Software using a 1:1 Langmuir binding model.
(§2) xi155D5 and the humanized variants were purified by standard protein A chromatography or the decapping method, and their affinity was analyzed using BIAcore (Table 13).

[2] = target: T1, human CA9 (carbonic anhydrase IX); assay: SPR (BIAcore), biotin-CA9 captured on CAP chip, antibody 0-50 nM as analyte
Protocol: To determine if chimerization, and therefore the loss of Cys80-Cys171 disulfide bond, results in structural perturbations leading to loss of antigen binding, the binding affinity of mAbs 155D5, xi155D5, 1-55-2, and xi1-55-2 by surface plasmon resonance was evaluated. Biotinylated ligand (biotin-hTEM1 for 1-55-2, biotin-CA9 for 155D5) was captured on a coated biotin CAP BIAcore chip (GE Healthcare, Piscataway, N.J.) using HBS-EP as running buffer. Final antigen capture levels were 130 RU and 280 RU, respectively, for biotin-TEM1 and biotin-CA9. Serial dilutions of antibody (120 μL of 0-50 nM) were passed over the ligand-coated chip. […] The chip surface was regenerated with 6 M GuHCl, 250 mM NaOH. Sensograms were double referenced and kinetic parameters were determined using BIAEvaluations software (ver. 4.1).

[3] = target: T1, human CA9 (carbonic anhydrase IX); assay: BIAcore T100, mAb captured on anti-human IgG, antigen as analyte, 1:1 model; mAb purified by protein A (ProA); protein A (ProA) purified, not decapped
Protocol: as §1, §2

B1: xi155D5 (rabbit/human chimerized 155D5 mAb) (antibody, human IgG1, kappa, V domains shown)
VH: QSVKESGGRLVTPGTPLTLTCTVSGFSLNSYAMIWVRQAPGEGLEYIGFITTGGTTYYASWAKGRFTISRTSTTVDLKLTRPTTEDTATYFCARDRVKSYDDYGDLDAFEPWGPGTLVTISS
VL: ELVMTQTPSSVSAAVGGTVTINCQASQSISSYLAWYQQKPGQPPKLLIYYASTLASGVPSRFKGSGSGTEFTLTITGVQCDDAATYYCLGVYGYSFDDGIAFGGGTELEIKR
notes: Human IgG1 kappa constant regions; Unpaired Cys80 of the light chain is capped by a free cysteine after plain protein A purification; also called xi155D5 mAb
For B1, the Kd [1] was 0.324 nM, the koff [1] was 0.000149 s⁻¹ and the Kd [2] was 0.051 nM. For the same binder, the koff [2] was 2.4e-05 s⁻¹, the kon [2] was 460000 M⁻¹ s⁻¹ and the kon [3] was 458000 M⁻¹ s⁻¹.
